Measurements from US20230090247A1, “MOLECULES TARGETING RAS PROTEIN” (AELIN THERAPEUTICS, priority 2020, published 2023).
Square brackets hold non-standard residues; d marks the D form. Peptide text beside a SMILES is read from it. Dap = NC[C@H](N)C(=O)O

Molecular target: T1, KRAS G12V (human, UniProt P01116-2 1-188, limits assumed)
Experiment: cell-based or functional assay
Settings: not given

Molecule | IC50 on viability of adherent NCI-H441 cells, CellTiter Glo, 3 days | decrease in viability of NCI-H441 suspension spheroids, 25 µM, 5 days, CellTiter Glo 3D
Ac-KLSVFAIKGSKLSVFAIK-NH2 [pept-in 04-004-N001] | ~10 µM | 75%
Ac-KLVVVGAVKGSKLVVVGAVK-NH2 [pept-in 04-014-N001] | ~10 µM | 
Ac-KVVVGAVGVGKGSKVVVGAVGVGK-NH2 [pept-in 04-033-N001] | ~10 µM | ≥ 75%
Ac-KVVVGAVKGSKVVVGAVK-NH2 [pept-in 04-006-N001] | ~10 µM | ≥ 75%
Ac-KVVVGAVGKGSKVVVGAVGK-NH2 [pept-in 04-015-N001] | ~10 µM | ≥ 75%

Test system: SW620 xenograft of human KRAS G12V mutant colorectal cancer
Experiment: In vivo SW620 xenograft model
Set-up: species or system Female NCr nu/nu mice
Settings: 20 μg intratumoral injection three times per week
Experimental: FIG. 12 illustrates that RAS-targeting pept-ins reduce tumor growth in a xenograft model of KRAS G12V mutant cancer. […] Pept-ins were dosed 3 times per week by intratumoral injection at either 20 or 200 μg once the tumors reached 100-150 mm^3. Model response was monitored by a positive control group receiving Irinotecan at 100 mg/kg, once per week for 3 weeks. Group sizes were N=6 for the non-treated group, N=5 for the vehicle groups and N=8 for the pept-in and positive control groups. Graphs show box plots of tumor volumes at day 22 after treatment started.
Female NCr nu/nu mice (8 to 12 weeks) were inoculated with 1×10^6 SW620 tumor cells in 50% Matrigel subcutaneously in the hind flank. The cell Injection Volume was 0.1 mL/mouse. When tumors reached an average size of 100-150 mm^3 a pair match was performed, and treatment started. Group sizes were N=6 for the non-treated group, N=5 for the vehicle groups and N=8 for the pept-in and positive control groups. Tumor growth was monitored by caliper measurement twice per week. Model response was monitored by Irinotecan dosed once per week at 100 mg/kg intraperitoneally for 3 weeks.
To assess whether the RAS-targeting pept-ins are able to attenuate growth of KRAS G12V-driven tumors in vivo, a subcutaneous xenograft model of human KRAS G12V colorectal cancer (SW620) was used. Once the tumors reached 100-150 mm^3 in size, pept-ins were administered directly into the tumor mass by intratumoral injection three times per week during two weeks at two different doses (20 μg and 200 μg).

Molecule | average tumor volume at day 22 after treatment started
CC(=O)N[C@@H](CCCCN)C(=O)N[C@H](C(=O)N[C@H](C(=O)N[C@H](C(=O)NCC(=O)N[C@@H](C)C(=O)N[C@H](C(=O)NCC(=O)N[C@@H](CCCCN)C(=O)NCC(=O)N[C@@H](CO)C(=O)N[C@@H](CCCCN)C(=O)N[C@H](C(=O)N[C@H](C(=O)N[C@H](C(=O)NCC(=O)N[C@@H](C)C(=O)N[C@H](C(=O)NCC(=O)N[C@@H](CCCCN)C(N)=O)C(C)C)C(C)C)C(C)C)C(C)C)C(C)C)C(C)C)C(C)C)C(C)C [04-015-N001] | significant reduction

Same assay, conditions: 200 μg intratumoral injection three times per week

Molecule | average tumor volume at day 22 after treatment started
CC(=O)N[C@@H](CCCCN)C(=O)N[C@H](C(=O)N[C@H](C(=O)N[C@H](C(=O)NCC(=O)N[C@@H](C)C(=O)N[C@H](C(=O)NCC(=O)N[C@@H](CCCCN)C(=O)NCC(=O)N[C@@H](CO)C(=O)N[C@@H](CCCCN)C(=O)N[C@H](C(=O)N[C@H](C(=O)N[C@H](C(=O)NCC(=O)N[C@@H](C)C(=O)N[C@H](C(=O)NCC(=O)N[C@@H](CCCCN)C(N)=O)C(C)C)C(C)C)C(C)C)C(C)C)C(C)C)C(C)C)C(C)C)C(C)C [04-015-N001] | significant reduction

Same assay, conditions: intratumoral, 20 μg and 200 μg

Molecule | reduction in tumor growth (comparison between pept-ins)
CC(=O)N[C@@H](CCCCN)C(=O)N[C@H](C(=O)N[C@H](C(=O)N[C@H](C(=O)NCC(=O)N[C@@H](C)C(=O)N[C@H](C(=O)NCC(=O)N[C@@H](CCCCN)C(=O)NCC(=O)N[C@@H](CO)C(=O)N[C@@H](CCCCN)C(=O)N[C@H](C(=O)N[C@H](C(=O)N[C@H](C(=O)NCC(=O)N[C@@H](C)C(=O)N[C@H](C(=O)NCC(=O)N[C@@H](CCCCN)C(N)=O)C(C)C)C(C)C)C(C)C)C(C)C)C(C)C)C(C)C)C(C)C)C(C)C [04-015-N001] | strongest reduction in tumor growth

Test system: NCI-H441 lung adenocarcinoma cells (suspension spheroid cultures)
Experiment: not given
Assay type: cell-based, human
Settings: not given

Molecule | IC50
CC(=O)N[C@@H](CCCCN)C(=O)N[C@H](C(=O)N[C@H](C(=O)N[C@H](C(=O)NCC(=O)N[C@@H](C)C(=O)N[C@H](C(=O)N[C@@H](CCCCN)C(=O)NCC(=O)N[C@@H](CO)C(=O)N[C@@H](C)C(=O)N[C@H](C(=O)N[C@H](C(=O)N[C@H](C(=O)NCC(=O)N[C@@H](C)C(=O)N[C@H](C(=O)N[C@@H](CCCCN)C(N)=O)C(C)C)C(C)C)C(C)C)C(C)C)C(C)C)C(C)C)C(C)C)C(C)C [04-006-N053] | 21.6 µM
CC(=O)N[C@@H](CCCCN)C(=O)N[C@H](C(=O)N[C@H](C(=O)N[C@H](C(=O)NCC(=O)N[C@@H](C)C(=O)N[C@H](C(=O)NCC(=O)N[C@@H](CCCCN)C(=O)NCC(=O)N[C@@H](Cc1ccccc1)C(=O)N[C@@H](CCCCN)C(=O)N[C@H](C(=O)N[C@H](C(=O)N[C@H](C(=O)NCC(=O)N[C@@H](C)C(=O)N[C@H](C(=O)NCC(=O)N[C@@H](CCCCN)C(N)=O)C(C)C)C(C)C)C(C)C)C(C)C)C(C)C)C(C)C)C(C)C)C(C)C [04-015-N063] | 38.7 µM
CC(=O)N[C@@H](CN)C(=O)N[C@H](C(=O)N[C@H](C(=O)N[C@H](C(=O)NCC(=O)N[C@@H](C)C(=O)N[C@H](C(=O)NCC(=O)N[C@H](C(=O)NCC(=O)N[C@@H](CCCCN)C(=O)NCC(=O)N[C@@H](CO)C(=O)N[C@@H](CCCCN)C(=O)N[C@@H](Cc1c[nH]c2ccccc12)C(=O)N[C@H](C(=O)NCC(=O)N[C@@H](C)C(=O)N[C@H](C(=O)NCC(=O)N[C@H](C(=O)NCC(=O)N[C@@H](CN)C(N)=O)C(C)C)C(C)C)C(C)C)C(C)C)C(C)C)C(C)C)C(C)C)C(C)C [04-033-N022] (Ac-[Dap]VVVGAVGVGKGSKWVGAVGVG[Dap]-NH2) | 5 µM
Ac-AVVVGAVAGSKVVVGAVK-NH2 [04-006-N082] | 18.2 µM
Ac-AVVVGAVKGSAVVVGAVK-NH2 [04-006-N060] | 31.7 µM
Ac-AVVVGAVKGSKVVVGAVK-NH2 [04-006-N044] | 5.3 µM
Ac-KLSVFAIKKLSVFAIK-NH2 [04-004-N016] | 45.9 µM
Ac-KVVVGAVAGSKVVVGAVK-NH2 [04-006-N050] | 5.7 µM
Ac-KVVVGAVGKFFKVVVGAVGK-NH2 [04-015-N064] | 48.9 µM
Ac-KVVVGAVGVGKKVVVGAVGVGK-NH2 [04-033-N007] | 13.1 µM
Ac-KVVVGAVKASKVVVGAVK-NH2 [04-006-N051] | 10.4 µM
Ac-KVVVGAVKGAKVVVGAVK-NH2 [04-006-N052] | 30.6 µM

Same assay, conditions: 25 μM, 5 days of exposure

Molecule | activity in the spheroid setting
Ac-KLVVVGAVKGSKLVVVGAVK-NH2 [04-014-N001] | did not display activity

Molecular target: T1, KRAS G12V
Experiment: cell-based or functional assay
Settings: not given
Remark: another data set of the same source

Molecule | Normalised viability NCI-H441 4 days of exposure to 25 µM (%)
Ac-KLSVFAIKGSKLSVFAIK-NH2 [pept-in 04-004-N001] | 6.1%
Ac-KLVVVGAVKGSKLVVVGAVK-NH2 [pept-in 04-014-N001] | 9.1%
Ac-KVVVGAVGVGKGSKVVVGAVGVGK-NH2 [pept-in 04-033-N001] | 5.2%
Ac-KVVVGAVKGSKVVVGAVK-NH2 [pept-in 04-006-N001] | 8.7%
Ac-KVVVGAVGKGSKVVVGAVGK-NH2 [pept-in 04-015-N001] | 23.3%

Molecular target: T1, KRAS G12V
Experiment: cell-based or functional assay
Settings: not given
Remark: another data set of the same source

Molecule | IC50 on cell viability, NCI-H441 suspension spheroids, CellTiter Glo 3D, 5 days
Ac-KVVVGAVGKFFKVVVGAVGK-NH2 [pept-in 04-015-N064] | 48.9 µM
Ac-AVVVGAVKGSKVVVGAVK-NH2 [pept-in 04-006-N044] | 5.3 µM
Ac-KVVVGAVAGSKVVVGAVA-NH2 [pept-in 04-006-N066] | 25.3 µM
Ac-KVVVGAVGVGKKVVVGAVGVGK-NH2 [pept-in 04-033-N007] | 13.1 µM
Ac-AVVVGAVAGSKVVVGAVK-NH2 [pept-in 04-006-N082] | 18.2 µM
Ac-KVVVGAVKGSKVVVGAVA-NH2 [pept-in 04-006-N059] | 15.7 µM
Ac-KVVVGAVKGAKVVVGAVK-NH2 [pept-in 04-006-N052] | 30.6 µM
Ac-AVVVGAVKGSAVVVGAVK-NH2 [pept-in 04-006-N060] | 31.7 µM
Ac-KVVVGAVGKGFKVVVGAVGK-NH2 [pept-in 04-015-N063] | 38.7 µM
Ac-KLSVFAIKKLSVFAIK-NH2 [pept-in 04-004-N016] | 45.9 µM
Ac-KVVVGAVKGSAVVVGAVK-NH2 [pept-in 04-006-N053] | 21.6 µM
Ac-KVVVGAVAGSKVVVGAVK-NH2 [pept-in 04-006-N050] | 5.7 µM
Ac-KVVVGAVKASKVVVGAVK-NH2 [pept-in 04-006-N051] | 10.4 µM
